This is an account of results in US20170137509A1 (AFFIRIS, published 2017).

Test [1] deals with T1, biotinylated peptide ligand representing ThrOpn (SPR). The test can be described thus: SPR (Biacore 2000), biotinylated peptide on streptavidin chip, mAb injected at 2 ug/ml. On the procedure: (§1) Binding analyses were performed on a Biacore 2000. The different biotinylated peptide ligands representing the different Opn products were immobilized on a streptavidin chip in one flow cell respectively, with a flow rate of 30 μl/min. The fourth flow cell is a reference cell without peptide. The peptides were dissolved in a DMSO solution and further diluted in HBS buffer (0.01M Hepes, 0.1M NaCl, 0.004M EDTA, 0.05% P20, pH=7.4). After immobilization, the chips in each flow cell were saturated with 1 μM D-Biotin. As a control, an unspecific serum was injected through all cells. The flow rate of the antibodies was 30 μl/min at a concentration of 2 μg/ml, volume injected 100 μl. The dissociation time was set at 500 sec. The chips were regenerated with 60 μl of 50 mM HCl. Off-rate values and KD values were calculated using the Biocore SPR software.
(§2) In order to define the binding strength of selected mAbs against their individual targets SPR analysis was performed using peptides representing the different Opn products. […] Thus in a situation where multiple washing steps are included (e.g. in the used functional cell based adhesion assay) the antibody will be washed away from its target. […] In a more physiological situation where antibody persistence is not influenced by steps depleting the antibody, mAb 4-4-2 is expected also display functional activity.

The next test addresses T2, full length Opn (flOpn) (human, UniProt P10451 17-314).
T2 construct: Recombinant, expressed in HEK293 c18 cells as 'Strep-314 AA (full length Opn)-6xHis'; ELISA and Western blot also used PeproTech Cat#120-35 as control, and Western lanes 1-4 hold full length Opn proteins with different tag systems; also called Strep-314 AA (full length Opn)-6xHis; full length osteopontin; not shown: N-terminal OneStrep-tag
The experiment in a line: ELISA on plates coated with recombinant human Opn, HRP anti-mouse IgG, OD 405 nm. On the procedure: (§3) ELISA plates (Nunc, Cat#439454) were coated with 1 μg/ml recombinant human Opn proteins (home-made or from PeproTech, Cat#120-35 as control) in 100 mM NaHCO3 pH=9,2 and blocked with 1% BSA in 1×PBS. Bound mouse anti-human monoclonal antibodies (BioGenes, 1 μg/ml) and the mouse serum used as positive control were detected using a HRP-conjugated goat anti-mouse IgG antibody ([…], Cat#115-035-068, 0.2 μg/ml). ABTS (0.68 mM ABTS in 0.1 M citric acid, pH=4.3) and 0.1% hydrogen peroxide was used as a substrate for the horse radish peroxidase (HRP). The substrate reaction was stopped by adding 1% SDS solution to the wells. The absorbance was read at 405 nm using a microplate reader (TECAN Sunrise).

The target of test [2] is T3, matrix-metalloproteinase-truncated Opn (MmpOpn) (human, UniProt P10451 17-166, limits assumed).
T3 construct: Recombinant, expressed in HEK293 c18 cells; stop codon after 166 AA; also called 1-Opn-166; 6xHis-166 AA (N-terminal MMP-cleaved Opn)
T3 sequence (P10451 other isoform, or with tags, fused parts or gaps limits assumed): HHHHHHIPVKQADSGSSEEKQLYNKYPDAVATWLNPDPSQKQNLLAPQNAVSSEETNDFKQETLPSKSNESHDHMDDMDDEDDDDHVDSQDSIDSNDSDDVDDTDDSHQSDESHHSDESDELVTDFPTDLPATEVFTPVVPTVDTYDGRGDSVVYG
The description is as above. On the procedure:
as §3

Test [3] concerns the target T4, biotinylated peptide ligand representing MmpOpn (SPR). The experiment in a line: SPR (Biacore 2000), biotinylated peptide on streptavidin chip, mAb injected at 2 ug/ml. As to the method: as §1, §2
Test [4] has as its target T1, biotinylated peptide ligand …. The experiment in a line: SPR (Biacore 2000), biotinylated peptide on streptavidin chip, mAb injected at 2 ug/ml; one value printed for 'ThrOpn and MmpOpn'.
Test [5] deals with T4, biotinylated peptide ligand …. Described as above.

T2 sequence (P10451 other isoform, or with tags, fused parts or gaps): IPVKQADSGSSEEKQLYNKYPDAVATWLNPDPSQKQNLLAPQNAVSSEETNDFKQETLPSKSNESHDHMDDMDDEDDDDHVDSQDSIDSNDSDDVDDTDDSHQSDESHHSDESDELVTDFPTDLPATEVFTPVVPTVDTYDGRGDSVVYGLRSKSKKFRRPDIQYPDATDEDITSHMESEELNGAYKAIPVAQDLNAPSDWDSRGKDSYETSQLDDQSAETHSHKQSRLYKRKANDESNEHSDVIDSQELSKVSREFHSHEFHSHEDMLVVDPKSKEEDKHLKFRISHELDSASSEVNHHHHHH

B1: mAb 4-4-2 (antibody, V domains shown)
VH: QVTLKESGPGILQPSQTLSLTCSFSGFSLSTYGLGVSWIRQPSGKGLEWLAHIYWDDNKRYKSSLKSRLTISKDTSSNQVFLKITSVDTADTATYYCARGTSPGVSFPYWGQGTLVTVSA
VL: DIQMTQSPASLSASVGETVTITCRASENIYSYLAWYQQKQGKSPQFLVYNAKTLAEGVPSRFSGSGSGTQFSLKINSLQPEDFGSYYCQHHYGTPLTFGAGTKLELKR
notes: also called Monoclonal Ab 4-4-2
On to B1, for which the Kd in test [1] was found to be 13.9 nM. Further, in test [1], the koff worked out at 0.00279 s⁻¹. In addition, the binding result (in the test with full length Opn (flOpn); in test [2]) was “no binding (tested: 1,00 µg/ml)” each time.

B2: mAb 7-5-4 (antibody, V domains shown)
VH: EVQLVETGGGLVQPKGALRLSCAVSGITFNTNGMNWVRQAPGRGLEWVARVRSKDYNFATYYADSVKDRFTISRDDSQSMLYLQMNNLRTEDTAMYYCVRPDYYGSSFAYWGQGTLVSVSA
VL: DVLMTQTPLSLPVSLGDQASISCRSSQSIVHSNGNTYLEWYLQKPGQSPKLLIYKVSNRFFGVPDRFSGSGSGTDFTLKISRVEAEDLGVYYCFQGSHVPWTFGGGTKLEIKR
notes: also called Monoclonal Ab 7-5-4
In test [3], B2 showed a Kd of 1.12 nM and a koff of 8.89e-05 s⁻¹. In addition, in the test with full length Opn (flOpn), the binding result is “no binding (tested: 1,00 µg/ml)”.

B3: mAb 9-3-1 (antibody, IgG1, V domains shown)
VH: EVQLVETGGGLVQPKGALRLSCAVSGITFNTNGMNWVRQAPGRGLEWVARVRSKDYNFATYYADSVKDRFTISRDDSQSMLYLQMNNLRTEDTAMYYCVRPDYYGSSFAYWGQGTLVSVSA
VL: DVLMTQTPLSLPVSLGDQASISCRSSQSIVHSNGNTYLEWYLQKPGQSPKLLIYKVSNRFFGVPDRFSGSGSGTDFTLKISRVEAEDLGVYYCFQGSHVPWTFGGGTKLEIKR
notes: tested as a separate clone; also called mAb CMI 9-3
Turning to B3, in test [3], binding was characterised by a dissociation constant (Kd) of 0.97 nM and the koff was determined as 8.79e-05 s⁻¹. Besides, the binding result with full length Opn (flOpn) is “no binding (tested: 1,00 µg/ml)”.

B4: mAb 21-5-4 (antibody, V domains shown)
VH: QVTLKESGPGMLKPSQTLSLTCSFSGFSLSTSGLGIGWIRQPSGKGLEWLAHISWDDSKYYNPSLKNRLTISKDTSRNQVFLKITNVGTADSATYFCARSGGGDSDWGQGTLVTVSA
VL: ANVLTQSPAIMSASPGEKVTMTCSANSSVNSIHWYQQKSSTSPKLWIYDTSKLASGVPGRFSGSGSGDSYSLTISSMEAEDVATYYCFQGSGYPLTFGGGTKLEIKR
notes: also called 21-5-4 mAb; Monoclonal Ab 21-5-4
In test [4], B4 came in with an equilibrium dissociation constant (Kd) of 0.84 nM and a koff of 1e-05 s⁻¹. In test [5], this molecule yielded a Kd of 0.84 nM and an off-rate constant (koff) of 1e-05 s⁻¹.
